Values joined by “and” are separate entries in the source; they are usually repeats but may differ in a detail not shown here. Identical values can stand only once.
Experiments:
IL-4 receptor [1] = biological target: T1, IL-4 receptor (Homo sapiens (Human), UniProt P24394); experiment: cell-based or functional assay
IL-4 receptor [2] = biological target: T1, IL-4 receptor; experiment: cell-based or functional assay; remark: listed apart in the source

- Mean EC50, nM (TF1 bioassay; 1-Spray Dry Powder) (IL-4 receptor [1]): 0.496 nM
- Mean EC50, nM (TF1 bioassay; 2-Spray Dry Powder) (IL-4 receptor [1]): 0.518 nM
- Mean EC50, nM (TF1 bioassay; 3-Spray Dry Powder) (IL-4 receptor [1]): 0.577 nM
- Mean EC50, nM (TF1 bioassay; 4-Spray Dry Powder) (IL-4 receptor [1]): 0.555 nM
- Mean EC50, nM (TF1 bioassay; mIL-4 Standard) (IL-4 receptor [1]): 0.524 nM
- Functionality by Bioassay (specific activity), EC 50 (nM); stability batch, 1 month (5° C.) (IL-4 receptor [2]): 0.178 nM and 0.138 nM
- Functionality by Bioassay (specific activity), EC 50 (nM); stability batch, 1 month (30° C./65%) (IL-4 receptor [2]): 0.191 nM and 0.184 nM
- Functionality by Bioassay (specific activity), EC 50 (nM); stability batch, 3 month (5° C.) (IL-4 receptor [2]): 0.302 nM
- Functionality by Bioassay (specific activity), EC 50 (nM); stability batch, 3 month (30° C./65%) (IL-4 receptor [2]): 0.3 nM
- Functionality by Bioassay (specific activity), EC 50 (nM); stability batch, T0 (IL-4 receptor [2]): 0.246 nM and 0.263 nM
- Functionality by Bioassay, Standard EC 50 (nM); reference standard (IL-4 receptor [2]): 0.264 nM and 0.194 nM and 0.305 nM
B1: human interleukin-4 mutein met-R121D/Y124D (ligand)
chain: MHKCDITLQEIIKTLNSLTEQKTLCTELTVTDIFAASKNTTEKETFCRAATVLRQFYSHHEKDTRCLGATAQQFHRHKQLIRFLKRLDRNLWGLAGLNSCPVKEANQSTLENFLERLKTIMDEKDSKCSS

From US20110005523A1, “Pharmaceutical Polypeptide Dry Powder Aerosol Formulation and Method of Preparation” (published 2011)
